Laboratory results taken from article PMC9365787, “Molecular basis of MHC I quality control in the peptide loading complex” (Nature Communications, 2022).

T1: ERp57 (human (endogenous in Raji), UniProt P30101 25-505, disulfide from Cys33 to Cys95 of tapasin)
T1 construct: also called disulfide isomerase ERp57; source: endogenous, Raji (Burkitt's lymphoma) cells, solubilised in GDN; purified within the PLC by ICP47^SBP and reconstituted in MSP2N2 nanodiscs
T1 sequence (looked up): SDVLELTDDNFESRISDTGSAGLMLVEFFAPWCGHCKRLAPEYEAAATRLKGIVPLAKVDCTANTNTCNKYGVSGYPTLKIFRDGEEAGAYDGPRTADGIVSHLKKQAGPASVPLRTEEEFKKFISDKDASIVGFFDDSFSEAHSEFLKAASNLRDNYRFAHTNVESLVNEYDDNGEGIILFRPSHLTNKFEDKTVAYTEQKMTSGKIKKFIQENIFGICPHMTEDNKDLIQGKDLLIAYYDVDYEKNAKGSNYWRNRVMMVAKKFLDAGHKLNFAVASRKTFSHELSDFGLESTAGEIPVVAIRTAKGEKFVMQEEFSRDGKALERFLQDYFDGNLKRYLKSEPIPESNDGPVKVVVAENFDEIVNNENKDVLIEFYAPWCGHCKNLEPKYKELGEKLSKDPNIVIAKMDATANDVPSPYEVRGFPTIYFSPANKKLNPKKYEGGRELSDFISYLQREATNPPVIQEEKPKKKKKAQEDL

B1: tapasin (natural protein, human (endogenous in Raji), UniProt O15533 21-448, looked up)
chain: GPAVIECWFVEDASGKGLAKRPGALLLRQGPGEPPPRPDLDPELYLSVHDPAGALQAAFRRYPRGAPAPHCEMSRFVPLPASAKWASGLTPAQNCPRALDGAWLMVSISSPVLSLSSLLRPQPEPQQEPVLITMATVVLTVLTHTPAPRVRLGQDALLDLSFAYMPPTSEAASSLAPGPPPFGLEWRRQHLGKGHLLLAATPGLNGQMPAAQEGAVAFAAWDDDEPWGPWTGNGTFWLPTVQPFQEGTYLATIHLPYLQGQVTLELAVYKPPKVSLMPATLARAAPGEAPPELLCLVSHFYPSGGLEVEWELRGGPGGRSQKAEGQRWLSALRHHSDGSVSLSGHLQPPPVTTEQHGARYACRIHHPSLPASGRSAEVTLEVAGLSGPSLEDSVGLFLSAFLLLGLFKALGWAAVYLSTCKDSKKKAE
modifications: N-glycan at Asn233 (Man9-0GlcNAc2-1, heterogeneous); disulfide from Cys95 to Cys33 of ERp57
notes: source: endogenous, Raji (Burkitt's lymphoma) cells, solubilised in GDN; purified within the PLC by ICP47^SBP and reconstituted in MSP2N2 nanodiscs
B2: calreticulin (natural protein, human (endogenous in Raji), UniProt P27797 18-417, looked up)
chain: EPAVYFKEQFLDGDGWTSRWIESKHKSDFGKFVLSSGKFYGDEEKDKGLQTSQDARFYALSASFEPFSNKGQTLVVQFTVKHEQNIDCGGGYVKLFPNSLDQTDMHGDSEYNIMFGPDICGPGTKKVHVIFNYKGKNVLINKDIRCKDDEFTHLYTLIVRPDNTYEVKIDNSQVESGSLEDDWDFLPPKKIKDPDASKPEDWDERAKIDDPTDSKPEDWDKPEHIPDPDAKKPEDWDEEMDGEWEPPVIQNPEYKGEWKPRQIDNPDYKGTWIHPEIDNPEYSPDPSIYAYDNFGVLGLDLWQVKSGTIFDNFLITNDEAYAEEFGNETWGVTKAAEKQMKDKQDEEQRLKEEEEDKKRKEEEEAEDKEDDEDKDEDEEDEEDKEEDEEEDVPGQAKDEL
notes: as for B1

Columns and labels:
[1] = target: T1, ERp57; assay: cryo-EM structure; PLC::MSP2N2 (1.8 mg/ml, 2.5 µM) in lipid nanodiscs without chemical fixation; focused refinement on the fully assembled editing module, 3.7 Å; details: both partners purified
[2] = target: B1; assay: as above; details: both partners purified

Row | binding result [1] | binding result [2] | Binder
1 | binds | – | B1
2 | – | binds | B2
